We go through 4 molecules from paper PMC11134845, “Development of a highly effective combination monoclonal antibody therapy against Herpes simplex virus” (Journal of Biomedical Science, 2024).

Several values for one entry are separate records, joined by “and”; a condition that tells them apart may be missing. Equal values may be shown once.

Holding throughout (details): both partners purified
Test [1] has as its target T1, HSV-1F gB ectodomain (recombinant glycoprotein B of Herpes simplex virus 1 strain F, aa 30-729) (Herpes simplex virus 1 (strain F), UniProt P06436, biotin (EZ-Link NHS-PEG4-Biotin, gB monomer to biotin 1:3) in the BLI only). The test is described as follows: cryo-EM 2D class averages; recombinant HSV-1 gB trimers incubated with a 1:1 molar mixture of HDIT101 and HDIT102 Fabs; 2D classes calculated from micrographs.

Test [2] concerns the target T1, HSV-1F gB ectodomain (recombinant …). The test is described as follows: BLI. For orientation: BLI is a label-free optical method that tracks binding on a fibre tip over time.
Test [3] has as its target T2, HSV-2G gB ectodomain (recombinant glycoprotein B of Herpes simplex virus 2 strain G, aa 22-724) (Herpes simplex virus 2 (strain G), biotin (EZ-Link NHS-PEG4-Biotin, gB monomer to biotin 1:3) in the BLI only).
T2 construct: also called HSV-2 gB; recombinant HSV-2 gB; not shown: double Strep-tag, C-terminal, cleaved
The test is described as follows: BLI.

The target in test [4] is T1, HSV-1F gB ectodomain (recombinant …). Nature of the test: cryo-EM structure.
The target in test [5] is T2, HSV-2G gB ectodomain (recombinant …). The test is described as follows: cryo-EM structure.

B1: HDIT102 Fab (Fab, V domains shown)
VH: EVQLVQSGAEVKTPGASVRVSCKASGHTFRTFDINWVRQAAGQGLEWMGWMSPNSGNTGYARQFQGRVTMTRNISANTAYMELRGLRFDDTAVYYCARGPGSTGTTGSMDVWGQGTTVTVSS
VL: QAGLTQPPSVSVAPGKTARISCGGNNIGSKSVHWYQQKPGQAPVLVIYYDSDRPSGIPERFSGSNSGNTATLTISRVEAGDEADYYCQVWDSGSVVFGGGTKLTVL
Broadly, the stoichiometry N is the number of molecules, sites or subunits per partner or assembly. A word on the Kd: it is the equilibrium constant for the complex coming apart. In general, koff refers to a measure of how fast the partners let go of each other. What is called kon is a measure of how fast the partners come together. Turning to B1, in test [1], the “stoichiometry N” value is 3 Fab per gB trimer and 2 Fab per gB trimer. Further, in test [2], the Kd is 0.0895 nM, the dissociation rate constant (koff) stood at 8.85e-05 s⁻¹ and the kon was 992000 M⁻¹ s⁻¹. Also, in test [3], the dissociation constant (Kd) was 0.0329 nM, the off-rate constant (koff) was determined as 2.86e-05 s⁻¹ and the kon is 865000 M⁻¹ s⁻¹.

B2: HDIT102 IgG (antibody, V domains shown)
VH: B1 VH
VL: B1 VL
notes: also called fully human IgG HDIT102; source: research grade quality, by contract manufacturer
For the molecule B2, the kon in test [2] stood at 700000 M⁻¹ s⁻¹.

B3: HDIT101 IgG (antibody, V domains shown)
VH: TLKESGPALVKPTQTLTLTCTFSGFSLSTSGMSVGWIRQPPGKALEWLAHIWWNNDKYYKPALKSRLTISKDTSKNQVVLTMTNMDPVDTATYYCARIYYGYRPYAMDYWGQGTLVTVSS
VL: IVMTQTPLSLPVTPGEPASISCRSSQSIVHSNGNTYLEWYLQKPGQSPQLLIYKVSNRFSGVPDRFSGSGSGTDFTLKISRVEAEDVGVYYCFQGSHVPWSFGQGTKLEIK
notes: also called humanized IgG HDIT101; source: GMP-grade, produced by Celonic Germany GmbH (contract manufacturer)
For B3, the kon in test [2] amounted to 500000 M⁻¹ s⁻¹.

B4: HDIT101 Fab (Fab, V domains shown)
VH: B3 VH
VL: B3 VL
notes: source: papain digestion of GMP-grade HDIT101 IgG1 (Celonic Germany GmbH), Pierce Fab Preparation Kit
On to B4, for which the “stoichiometry N” value in test [1] was 1 Fab per gB trimer; in test [4] it was 3 Fab per gB trimer; in test [5] it was 3 Fab per gB trimer. Besides, the Kd stood at 7.26 nM in test [2] and 18.1 nM in test [3]. Besides, the figures for the off-rate (koff) in test [2] and in test [3] were 0.00313 s⁻¹ and 0.00379 s⁻¹, respectively. In addition, the kon stood at 435000 M⁻¹ s⁻¹ in test [2] and 212000 M⁻¹ s⁻¹ in test [3].
